Columns and labels:
Assay in all cases: ELISA: SEAP-His proteins (1 nM) captured on anti-6-His antibody, antibody A 10 µg/mL with human IgG 100 µg/mL, HRP anti-mouse IgG, OD450 as % of human EphA4-SEAP-His
[1] = molecular target: T1, human EphA8 extracellular region-SEAP-His protein (human, UniProt P29322 28-542)
T1 construct: extracellular domain; also called Eph receptor extracellular region-SEAP-His protein; not shown: secretory alkaline phosphatase (SEAP); histidine tag
T1 sequence (looked up): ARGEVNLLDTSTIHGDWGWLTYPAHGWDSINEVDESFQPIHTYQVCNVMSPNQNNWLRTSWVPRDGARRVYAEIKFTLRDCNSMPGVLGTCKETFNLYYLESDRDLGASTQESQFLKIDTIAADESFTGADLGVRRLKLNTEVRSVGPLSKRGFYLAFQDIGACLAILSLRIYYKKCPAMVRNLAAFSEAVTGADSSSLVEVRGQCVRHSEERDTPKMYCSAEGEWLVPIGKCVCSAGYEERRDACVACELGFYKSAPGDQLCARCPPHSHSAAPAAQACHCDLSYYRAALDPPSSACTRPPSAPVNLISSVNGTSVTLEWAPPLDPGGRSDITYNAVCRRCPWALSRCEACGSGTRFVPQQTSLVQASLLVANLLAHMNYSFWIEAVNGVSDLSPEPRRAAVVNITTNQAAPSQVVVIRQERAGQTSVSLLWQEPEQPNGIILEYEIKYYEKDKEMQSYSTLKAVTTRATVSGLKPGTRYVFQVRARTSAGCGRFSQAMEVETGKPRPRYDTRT
Experimental: (§1) Rabbit anti-6-His antibodies (Bethel Laboratories) were coated onto the wells of a 96-well plate (Nunc). After incubating at 4° C. overnight, the wells were blocked at room temperature for 1 hour by 1% Block Ace (DS Pharma Biomedical). After washing 3 times with 0.05% Tween 20/PBS (Thermo […]), each Eph receptor of human extracellular region-SEAP-His protein (final concentration 1 nM) was seeded into each well, and incubated at room temperature for 1 hour. After washing 3 times, human IgG solution (100 μg/mL, Mitsubishi Pharma Corporation) and antibody A (10 μg/mL) were supplemented to the wells, and incubated at room temperature for 1 hour. Horseradish peroxidase-labeled donkey anti-mouse IgG antibody (Jackson ImmunoResearch Laboratories) was added, and incubated at room, temperature for 1 hour. After washing 3 times, TMBZ (3,3′,5,5′-tetramethylbenzidine, Sigma) solution was added to the wells, and upon confirmation of modest coloring, an equal amount of quenching solution (1 N H₂SO₄, Wako Pure Chemicals) was added to the wells, and absorbance at 450 nm was read by a microplate reader (PerkinElmer).

[2] = molecular target: T2, human EphA10 extracellular region-SEAP-His protein (human, UniProt Q5JZY3 34-565)
T2 construct: extracellular domain; also called Eph receptor extracellular region-SEAP-His protein; not shown: secretory alkaline phosphatase (SEAP); histidine tag
T2 sequence (looked up): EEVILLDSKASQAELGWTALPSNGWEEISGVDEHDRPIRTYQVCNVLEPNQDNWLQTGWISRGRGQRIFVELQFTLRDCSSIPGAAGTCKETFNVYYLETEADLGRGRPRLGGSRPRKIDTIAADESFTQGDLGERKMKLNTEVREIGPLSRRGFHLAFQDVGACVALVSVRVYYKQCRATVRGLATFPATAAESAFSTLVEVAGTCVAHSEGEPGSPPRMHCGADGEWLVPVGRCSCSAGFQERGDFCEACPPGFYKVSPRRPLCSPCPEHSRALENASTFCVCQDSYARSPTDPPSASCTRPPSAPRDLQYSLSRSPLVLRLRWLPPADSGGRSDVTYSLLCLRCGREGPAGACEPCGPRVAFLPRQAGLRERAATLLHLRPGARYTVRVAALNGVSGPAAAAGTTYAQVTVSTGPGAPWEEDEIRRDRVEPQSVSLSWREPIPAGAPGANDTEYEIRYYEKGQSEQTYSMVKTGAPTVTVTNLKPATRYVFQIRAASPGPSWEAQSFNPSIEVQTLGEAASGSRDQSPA
Experimental: as §1

[3] = molecular target: T3, human EphB2 extracellular region-SEAP-His protein (human, UniProt P29323 19-543)
T3 construct: extracellular domain; also called Eph receptor extracellular region-SEAP-His protein; not shown: secretory alkaline phosphatase (SEAP); histidine tag
T3 sequence (looked up): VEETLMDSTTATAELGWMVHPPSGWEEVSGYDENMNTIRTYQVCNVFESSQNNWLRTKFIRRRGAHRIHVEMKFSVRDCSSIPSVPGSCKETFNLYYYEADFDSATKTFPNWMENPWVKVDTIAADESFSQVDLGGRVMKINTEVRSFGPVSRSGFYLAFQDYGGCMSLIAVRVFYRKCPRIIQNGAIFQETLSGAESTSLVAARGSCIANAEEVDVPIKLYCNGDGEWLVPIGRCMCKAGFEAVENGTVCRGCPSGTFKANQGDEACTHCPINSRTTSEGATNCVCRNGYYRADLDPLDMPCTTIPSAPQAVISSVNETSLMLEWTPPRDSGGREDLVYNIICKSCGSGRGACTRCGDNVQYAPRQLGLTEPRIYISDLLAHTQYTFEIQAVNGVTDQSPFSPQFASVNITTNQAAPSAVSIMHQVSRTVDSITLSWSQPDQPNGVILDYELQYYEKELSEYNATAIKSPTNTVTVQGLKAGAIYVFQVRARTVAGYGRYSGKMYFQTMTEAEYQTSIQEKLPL
Experimental: as §1

[4] = molecular target: T4, human EphA2 extracellular region-SEAP-His protein (human, UniProt P29317 24-537)
T4 construct: extracellular domain; also called Eph receptor extracellular region-SEAP-His protein; not shown: secretory alkaline phosphatase (SEAP); histidine tag
Experimental: as §1

Measured: binding result

T4 sequence (P29317 24-537): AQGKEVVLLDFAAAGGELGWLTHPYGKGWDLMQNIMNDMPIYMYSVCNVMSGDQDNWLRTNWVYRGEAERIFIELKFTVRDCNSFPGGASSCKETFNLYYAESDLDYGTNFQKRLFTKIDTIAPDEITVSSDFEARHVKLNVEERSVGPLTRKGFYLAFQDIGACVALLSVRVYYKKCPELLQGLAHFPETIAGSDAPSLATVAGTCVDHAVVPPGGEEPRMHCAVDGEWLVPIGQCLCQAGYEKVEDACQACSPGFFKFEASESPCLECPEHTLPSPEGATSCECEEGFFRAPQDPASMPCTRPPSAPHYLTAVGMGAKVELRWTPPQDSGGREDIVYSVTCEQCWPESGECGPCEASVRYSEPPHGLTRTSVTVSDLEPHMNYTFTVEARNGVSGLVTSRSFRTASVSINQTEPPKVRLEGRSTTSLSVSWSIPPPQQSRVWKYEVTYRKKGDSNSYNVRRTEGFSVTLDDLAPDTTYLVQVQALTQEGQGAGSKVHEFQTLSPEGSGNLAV

B1: mouse anti-EphA4 monoclonal antibody (antibody A) (antibody, mouse IgG1, kappa, V domains shown)
VH: QVQLKQSGPSLVQPSQSLSITCTVSGFSLTRYGVHWVRQSPGKGLEWLGVIWRGGSTDYNAAFMSRLSITKDNSKSQVFFKMNSLQADDTAIYYCAKESLFGVYYDYGYYSMDYWGQGTSVTVSS
VL: DIQMTQSPSSLSASLGERVSLTCRASQEISGYLSWLQQKPDGTIKRLIYAASTLDSGVPKRFSGSRSGSDYSLTISSLESEDFADYYCLQYASYPLTFGAGTKLELKR
notes: purified from hybridoma supernatant
no binding (tested: 10 µg/mL): all assays above

Source: patent US20240010735A1 (EISAI R AND D MANAGEMENT, published 2024)
